Experimental data from US20070269898A1, “Amino Acid Sequences Essential to Neuron Specific Gene Expression” (YOKOHAMA CITY UNIVERSITY, priority 2004, published 2007).
Where no end group is shown, it is not given here.

T1: mSin3B PAH1 domain (Mus musculus, UniProt Q62141)
T1 construct: Gly-Ser-His-Met (vector-derived N-terminal residues; general statement only, not tied to the sample used) (N); made in house
T1 sequence (Q62141 28-107): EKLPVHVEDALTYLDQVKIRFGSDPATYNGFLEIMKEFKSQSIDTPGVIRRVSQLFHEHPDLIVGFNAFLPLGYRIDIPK

T2: PAH1 domain of mSin3B (a.a. 28-107) (mouse, UniProt O75182 35-114 (human entry))
T2 construct: Expressed in E. coli from pET-28a (NdeI-BamHI) and the His-tag was cut off with thrombin; Used 15N-labeled (or 13C/15N-labeled) in NMR; Stated molecular weight 9585; also called mSin3B PAH1 domain; mSin3B PAH1
T2 sequence: T1 sequence (Q62141 28-107)

B1: NRSF/REST (a.a. 38-57) (peptide)
peptide: KAELAAPQLIMLANVALTGE
notes: Synthetic peptide, molecular weight 2053; Used for NMR structure analysis of the complex; also called NRSF/REST38-57
B2: NRSF/REST (a.a. 43-83) (peptide)
peptide: APQLIMLANVALTGEVNGSCCDYLVGEERQMAELMPVGDNN
notes: Recombinant, made as a GST fusion (pGEX-2T, BamHI-EcoRI) and GST was cut off with thrombin; Stated molecular weight 4511; also called NRSF/REST43-83
B3: NRSF/REST (a.a. 42-56) to which KKKK and W are added to its C-terminus (peptide)
peptide: AAPQLIMLANVALTGKKKKW
notes: Synthetic peptide, molecular weight 2182; also called NRSF/REST42-56
B4: N-CoR (a.a. 1829-1847) (peptide)
peptide: RYNTAADALAALVDAAASA
notes: Synthetic peptide, molecular weight 1835; also called co-repressor N-CoR
B5: NRSF/REST (a.a. 64-80) (peptide)
peptide: DYLVGEERQMAELMPVG
notes: Synthetic peptide, molecular weight 1937
B6: NRSF/REST (a.a. 39-55) (peptide)
peptide: AELAAPQLIMLANVALT
notes: Synthetic peptide, molecular weight 1739; also called NRSF/REST39-55
B7: NRSF/REST (a.a. 68-83) (peptide)
peptide: GEERQMAELMPVGDNN
notes: Synthetic peptide, molecular weight 1790

How the values were obtained:
Solubility of peptide = format: physicochemical; settings: before adding KKKK to the C-terminus
mSin3B PAH1 domain = biological target: T1, mSin3B PAH1 domain; test: 1H-15N HSQC interaction / titration experiment with 15N-labeled mSin3B PAH1 domain; format: binding; settings: for Spectrum (1H-15N HSQC of 15N-mSin3B PAH1 after adding the peptide: complex or single peptide): peptide added to aqueous solution of 15N-labeled mSin3B PAH1
Method: Interaction candidate regions of NRSF/REST (a.a. 43-83, 39-55, 38-57, 64-80 and 68-83) were individually added to an aqueous solution of ^15N-labeled mSin3B PAH1 for measuring ^1H—^15N HSQC to thereby determine a region necessary for the interaction. In order to examine binding ratios, NRSF/REST (a.a. 42-56) at varied concentrations was added to ^15N-labeled mSin3B PAH1 domain in phosphate buffer (pH 6.6), followed by observation of signal changes by ^1H—^15N HSQC. […] Further, in order to carry out quantitative determination of concentrations with UV, a residue having an aromatic ring (W) was also added to the peptide. In a similar manner, the interaction between ^15N-labeled mSin3B PAH1 domain and N—CoR (a.a. 1829-1847) was observed by ^1H-^15N HSQC. For all of the NMR measurement, Bruker Advance 700 was used.
^1H—^15N HSQC spectra were measured when NRSF/REST (a.a. 42-56) was added to 0.1 mM ^15N-labeled mSin3B PAH1 domain at a molar ratio of 1:0, 1:0.5, 1:1 or 1:2. As the concentration of NRSF/REST increased, signals from the single peptide mSin3B disappeared and new signals derived from the mSin3B in complex began to appear. […] No difference was recognized between mSin3B PAH1:NRSF/REST ratios of 1:1 and 1:2. Therefore, it was shown that mSin3B PAH1 domain and NRSF/REST form a complex with 1:1.
^1H—^15N HSQC spectra were measured when N—CoR was added to 0.1 mM ^15N-labeled mSin3B PAH1 domain at a molar ratio of 1:0, 1:0.2, 1:0.4, 1:0.6, 1:0.8, 1:1, 1:2 or 1:3. The positions of signals shifted in a N—CoR concentration dependent manner.

[1] = biological target: T2, PAH1 domain of mSin3B (a.a. 28-107); test: 1H-15N HSQC NMR, peptide added to 15N-labeled mSin3B PAH1 domain
Method: (§1) Interaction candidate regions of NRSF/REST (a.a. 43-83, 39-55, 38-57, 64-80 and 68-83) were individually added to an aqueous solution of ¹⁵N-labeled mSin3B PAH1 for measuring ¹H—¹⁵N HSQC to thereby determine a region necessary for the interaction. In order to examine binding ratios, NRSF/REST (a.a. 42-56) at varied concentrations was added to ¹⁵N-labeled mSin3B PAH1 domain in phosphate buffer (pH 6.6), followed by observation of signal changes by ¹H—¹⁵N HSQC. Since NRSF/REST (a.a. 42-56) is sparingly soluble, basic residues (KKKK) were added to its C-terminus to improve the solubility. Further, in order to carry out quantitative determination of concentrations with UV, a residue having an aromatic ring (W) was also added to the peptide. […] For all of the NMR measurement, Bruker Advance 700 was used.

[2] = biological target: T2, PAH1 domain of mSin3B (a.a. 28-107); test: 1H-15N HSQC titration, 0.1 mM 15N-labeled mSin3B PAH1 at molar ratios 1:0 to 1:3
Method: as §1
¹H—¹⁵N HSQC spectra were measured when N—CoR was added to 0.1 mM ¹⁵N-labeled mSin3B PAH1 domain at a molar ratio of 1:0, 1:0.2, 1:0.4, 1:0.6, 1:0.8, 1:1, 1:2 or 1:3. The positions of signals shifted in a N—CoR concentration dependent manner. A rapid exchange process on the NMR timescale was shown.

Molecule | Spectrum (1H-15N HSQC of 15N-mSin3B PAH1 after adding the peptide: complex or single peptide) (mSin3B PAH1 domain) | binding result [1] | further results
AAPQLIMLANVALTGKKKKW [NRSF/REST 42-56] |  |  | solubility (Solubility of peptide): sparingly soluble
AELAAPQLIMLANVALT (listed as Homo sapiens) [NRSF/REST 39-55, synthetic peptide of NRSF/REST residues 39-55] | Complex |  | 
APQLIMLANVALTGEVNGSCCDYLVGEERQMAELMPVGDNN (listed as Homo sapiens) [NRSF/REST 43-83, NRSF/REST residues 43-83, expressed as GST fusion in E. coli and cut with thrombin] | Complex |  | 
DYLVGEERQMAELMPVG (listed as Homo sapiens) [NRSF/REST 64-80, synthetic peptide of NRSF/REST residues 64-80] | Single |  | 
GEERQMAELMPVGDNN (listed as Homo sapiens) [NRSF/REST 68-83, synthetic peptide of NRSF/REST residues 68-83] | Single |  | 
KAELAAPQLIMLANVALTGE (listed as Homo sapiens) [NRSF/REST 38-57, synthetic peptide of NRSF/REST residues 38-57] | Complex |  | 
N—CoR (a.a. 1829-1847): synthetic peptide of residues 1829-1847 of transcriptional co-repressor N—CoR (RYNTAADALAALVDAAASA; listed as Homo sapiens) |  |  | interaction with the PAH1 domain relative to NRSF/REST (mSin3B PAH1 domain; 1H-15N HSQC): interacts with the PAH1 domain, though more weakly than NRSF/REST; exchange process on the NMR timescale (mSin3B PAH1 domain; titration into 0.1 mM 15N-labeled mSin3B PAH1 domain, 1H-15N HSQC): rapid exchange process
B1 |  | binds | 
B2 |  | binds | 
B3 |  | binds | 
B4 |  |  | binding result [2]: binds
B5 |  | no binding | 
B6 |  | binds | 
B7 |  | no binding | 
